Data from the RNAGym collection of RNA variant scans (doi:10.7554/elife.80360).

B1: HDV Ribozyme (parent)
chain: GGCCGGCAUGGUCCCAGCCUCCUCGCUGGCGCCGGCUGGGCAACAUUCCGAGGGGACCGUCCCCUCGGUAAUGGCGAAUGGGACCCA

Variants of: B1
Assay: self-cleavage, relative activity (ratio to wild type); higher = more cleavage; co-transcriptional

Variant	self-cleavage
C14A C62A	1.06
C14A C62G	0.582
C14A C62U	0.623
C14A G52A	0.567
C14A G52U	1.03
C14A C61U	0.656
C14A C26A	0.966
C14A C26G	0.831
C14A C24U	0.0361
C13U G81U	0.163
C13U U60C	0.831
C13U U60G	0.831
C14G A51C	0.712
C14A U27C	0.554
C14A G17A	0
C14A G76A	0.718
C14A G76C	0.969
C14A G25A	0.141
C13U U37A	0.0308
C13U U37C	0.369
C13U U37G	0.138
C14G A45C	0.434
C14G A45G	0.0875
C14A G73A	0.383

Variant	self-cleavage
C14A G73U	0.13
C14A A71G	0.499
C14A A71U	0.852
C14A C84G	0.623
C14G A77U	0
C14G A77G	0.415
C14G A77C	0
C14G A70C	0.185
C14G A70G	0.831
C14G A70U	0.529
C13U U23A	0.571
C14A G54C	0.536
C14A C75A	0.208
C14A C75G	0.256
C14A A16C	0.755
C14A C33U	0.587
C14A C33A	0.0959
C14A C33G	0.213
C14G A87C	0.793
C14G A87U	0.895
C13U U46C	0.138
C13U U46A	0.219
C14A C86A	0.886
C13U U69G	0.7

Variant	self-cleavage
C13U U69A	0.8
C14A C48U	0.791
C14A A78C	0.158
C14A U79G	0.575
C14A U79C	0.173
C14A U79A	0.369
C14A G59U	1.05
C14A G59C	0.739
C14A C19G	0
C14A C19U	0.182
C14A G35C	0.0536
C14A G35A	0.0426
C14A G35U	0.232
C14G A43C	0.0504
C14G A43U	0.138
C14A U20G	0
C14A A56G	0.57
C14A A56C	0.539
C14A C22U	0.181
C14A U60A	0.499
C14A A45U	0.467
C14G C19A	0
C14G A71U	0.529
C14G A71C	0.208

Variant	self-cleavage
C14G A71G	0.712
C14A G28A	0.141
C14A G28U	0.0733
C14A G50U	0.467
C14A C36G	0.107
C14A A51U	0.779
C14A A51G	0.755
C13U U72A	0.128
C13U U72C	0.252
C13U U72G	0.266
C14G A83C	0
C14G A83G	0.268
C14A G38A	0
C14A G38U	0.182
C14A G38C	0.141
C13U G82C	0.277
C13U G82U	0.359
C14A C41U	0.539
C13U G76U	0.813
C14A G68C	0.388
C14A G68U	0.462
C14A G29U	0.0966
C13U U47C	0.489
C13U U47G	0.95

Variant	self-cleavage
C14A A87G	0.659
C14A C32A	0.148
C14A C32U	0.458
C14A G34U	0.101
C14A G67U	0.532
C14A G67A	0.435
C14A C21A	0.0652
C14A C21G	0.141
C14A U47A	0.639
C14G A56C	0.646
C13U U20C	0.0978
C13U U20G	0.135
C14A U37A	0.0405
C14A U37G	0.104
C14A C58U	0.705
C14A G55U	0.73
C14A G55C	0.767
C14A G80A	0.565
C14A G80U	0.273
C14A A43C	0.0396
C14A A43G	0
C14A A43U	0.145
C14G C18G	0
C14A C15A	0.582

Variant	self-cleavage
C14A C15G	0.138
C14A U46C	0.237
C14A U46A	0.199
C14A C57G	0.72
C14A C57U	1.23
C14A U72G	0.151
C14A U72A	0.332
C14A A77G	0.755
C13U U27G	1.06
C13U U27C	0.615
C14A C18U	0
C14A C18G	0
C14A C44U	0.166
C14A C44G	0.346
C14G C15A	0.312
C14G C15G	0
C14G C15U	0.111
C14A C85U	0.724
C14A C85G	0.906
C14A A83U	0.499
C14A A83C	0.0755
C14G A16G	0.554
C14G A78G	0.317
C14G A78C	0.108

Variant	self-cleavage
C14A U23G	0.222
C14A G39A	0.177
C14A G39U	0.222
C14A U65G	0.688
C14A C64G	0.892
C14A C49U	0.7
C14A C49G	0.101
C14A A42C	0.0369
C14A A42G	0.277
C13U U79A	0.256
C14A A70U	0.344
C14A A70G	0.665
C14A C63A	0.755
C14A C63U	0.731
C14A U69G	0.665
C14A G82A	0.415
C14A G81A	0.911
C14A G81U	1.15
C14A G81C	1.22
C14A G40A	0.706
C14A	0.761
C14G	0.724
C13U G80C	0.0332
